These results are taken from US8444963B2 (priority 2006, dated 2013).

Data set [1] relates to syngeneic CT26 colorectal tumors. The data set is described as follows: CT26 tumors in BALB/c mice treated with C. novyi-NT spores and free or liposomal drugs. The class given is in vivo, mouse. The note with it: 300 million spores i.v., drug 10 mg/kg single i.v. dose 16 h later. How it is done: Animal models. […] Tumor volume was calculated as length×width^2×0.5.
The next data set deals with E. coli. The data set is described as follows: Growth of E. coli expressing NT01CX2047 forms after IPTG induction. The class given is cell-based. The settings on record: after induction by IPTG. How it is done:
Protein Expression. The expression vectors described above were transformed by heat shock into the Rosetta-gami(DE3)pLysS strain of E. coli (Novagen, Madison, Wis.). Three clones per expression construct were picked and each was cultured in 20 ml HyperBroth (AthenaES, Baltimore, Md.) under antibiotic selection (100 μg/ml ampicillin+34 μg/ml chloramphenicol) at room temperature. As a negative control, bacteria carrying the pLip plasmid were “cured” of their plasmid through growth in the absence of selective antibiotics. Loss of plasmid was verified by PCR. Expression was induced using IPTG for 1 hour, reaching an OD600˜0.2, after which the bacteria were pelleted by centrifugation and resuspended in 100 mM Tris-HCl, pH 7.5. Lysates were prepared by sonication in a Bioruptor sonicating bath (Diagenode, Belgium) and centrifugation at ˜14,000 g was performed to remove insoluble matter. […]
To examine the properties of the protein encoded by NT01CX2047, we cloned its ORF into an inducible expression vector which was then introduced into a genetically modified E. coli strain that permitted expression of C. novyi-NT genes (which have a codon usage very different than that of E. coli). […] Lysates from these cells were tested for lipase activity as measured by hydrolysis of 1,2-dioleoyl-3-pyrenedecanoyl-rac-glycerol. […]

The nature of data set [2]: Lipase assay of E. coli lysates. The settings on record: lysates of IPTG-induced E. coli clones. The class given is biochemical. An excerpt:
FIG. 4A-4D. Functional analysis of liposomase. Plasmids carrying the wt or mutant forms of the NT01CX2047 gene were introduced into E. coli. “Cured” bacteria represent those originally containing the wt gene and grown in the absence of selective antibiotics until the plasmid was lost. Cellular lysates from three independent clones of each bacterial strain were generated after induction of expression by IPTG and used for the following: (FIG. 4A) Western blotting with an antibody to oligohistidine confirmed the presence of similar amounts of wt and mutant proteins in the bacteria. (FIG. 4B) Lipase activity was analyzed using the fluorescent lipase substrate, 1,2-dioleoyl-3-pyrenedecanoyl-rac-glycerol. (FIG. 4C) Liposome-disrupting activity was assessed using Doxil. (FIG. 4D) Liposome-disrupting activity of lipases purified from ten different organisms were assessed using Doxil. Means and standard deviations of data from at least two independent experiments are shown in (FIG. 4B) to (FIG. 4D).
Protein Expression. […]
Lipase Assay. […] Increase in fluorescence caused by catalytic release of pyrenedecanoic acid was kinetically measured over 2 hours using excitation at 320 nm and emission at 405 nm. All measurements were performed at 37° C. in a FluoStar Galaxy fluorescence plate reader. […]

The nature of data set [3]: Liposome-disruption assay (doxorubicin release from Doxil). It is filed as biochemical. The note with it: lysates of IPTG-induced E. coli incubated with liposomal doxorubicin. How it is done:
Liposome-Disruption Assay. Samples were mixed with DOXIL™ liposomal doxorubicin (100 μl sample+5 μl DOXIL™ liposomal doxorubicin in a 96-well plate or 50 μl sample+2 μl DOXIL™ in a 384-well plate). Increase in fluorescence caused by the dequenching of released doxorubicin was kinetically measured over 30-60 minutes using excitation at 470 nm and emission at 590 nm (5). All measurements were performed at 37° C. in a fluorescence plate reader. Liposome-disrupting activity was defined as the maximum slope of the release curve.
Lipase Panel Experiment. Purified NT01CX2047 enzyme and nine other purified lipases were dissolved in 100 mM Tris-HCl, pH 7.5 to a concentration of 1 mg/ml. Fifty μl of Assay Buffer (100 mM Tris-HCl pH 7.5+0.125M NaCl) was pipetted into 384-well plates, followed by 2 μl of the relevant lipase and 1 μl of DOXIL. Samples were assayed in duplicate for liposome-disrupting activity as described above.
To test the liposome-disrupting activity of the lysates described above, we incubated them with liposomal doxorubicin. […] When this strain was cultured without selective antibiotics until the bacteria lost the expression vector by random segregation, the liposome-disrupting activity was lost (FIG. 4C). Moreover, the cells that had lost the plasmid were able to grow as robustly as the parental E. coli and the S127X mutant.

Turning to `COc1cccc2c1C(=O)c1c(O)c3c(c(O)c1C2=O)C[C@@](O)(C(=O)CO)C[C@@H]3O[C@H]1C[C@H](N)[C@H](O)[C@H](C)O1` [doxorubicin], the “tumor response (tumor volume)” value in data set [1] is “Neither doxorubicin nor Doxil alone resulted in prolonged therapeutic effects”.

B1: NT01CX2047: C. novyi-NT extracellular lipase, the liposome-disrupting factor (SEQ ID NO: 1), expressed in E. coli with oligohistidine tag (protein, listed as Clostridium novyi)
chain: MQSKLKKFISTISVSLFTLASVLTFSMAKPVNAFAKENQKVSQNNYPIILCHGCNGWGRTENFGTVAFGARYYWGGNVDLQQKLIENGFTTYTAAVGPLSSNWDRACELYAQIKGGRVDYGEAHAKKHGHSRYGRYYRGFYPEWGTKDENGNIRKVHLIGHSQGGQTIRMLTTLLGQGKQEEISATGENTNELFKGGHDWVSGLITLASPHDGTTLADMKGTDAAAAIGIGAVGSMLGNISNSDIIFDLKVDQWGLKRKPSESFISYFNRCATSKMWNSKDICSVDLSTNGAVEQNKWVKAQPNVYYFSWACCGTIRNPISIFGHHMASPIRMSDKGLYNVQWALQAQLMGTYSRNNPRRAIPVIDSKWWPNDGYVNTISENGPKAGSTDEIVNYNGTPQIGKWNFMGVKDMDHEDIIGRHWNGAPNFFIDMAQMLRNLPVTE
modifications: oligohistidine tag
For B1, the “growth of the expressing E. coli cells (apparent toxicity of gene product)” value with E. coli is “grew poorly”. Moreover, in data set [2], the lipase activity entry is recorded as “exhibited lipase activity”. Besides, the liposome-disrupting activity result in data set [3] was “potent activity”.

B2: S127G (protein, listed as Clostridium novyi)
chain: MQSKLKKFISTISVSLFTLASVLTFSMAKPVNAFAKENQKVSQNNYPIILCHGCNGWGRTENFGTVAFGARYYWGGNVDLQQKLIENGFTTYTAAVGPLSSNWDRACELYAQIKGGRVDYGEAHAKKHGHSRYGRYYRGFYPEWGTKDENGNIRKVHLIGHGQGGQTIRMLTTLLGQGKQEEISATGENTNELFKGGHDWVSGLITLASPHDGTTLADMKGTDAAAAIGIGAVGSMLGNISNSDIIFDLKVDQWGLKRKPSESFISYFNRCATSKMWNSKDICSVDLSTNGAVEQNKWVKAQPNVYYFSWACCGTIRNPISIFGHHMASPIRMSDKGLYNVQWALQAQLMGTYSRNNPRRAIPVIDSKWWPNDGYVNTISENGPKAGSTDEIVNYNGTPQIGKWNFMGVKDMDHEDIIGRHWNGAPNFFIDMAQMLRNLPVTE
Turning to B2, in the data set on E. coli, the “growth of the expressing E. coli cells (apparent toxicity of gene product)” value is on record as “same poor growth as wild-type NT01CX2047”. Besides, in data set [2], the lipase activity result was “devoid of lipase activity”. The liposome-disrupting activity result in data set [3] is recorded as “retained substantial liposome-disrupting activity”.
